Test results published in paper PMC5177890, “Controlled Orientation of Active Sites in a Nanostructured Multienzyme Complex” (Scientific Reports, 2016).

Target: the molecule itself
Assay: SEC; size exclusion chromatography of the enzyme in solution (Supplementary Fig. 1); conditions not told in the main text

B1: Formate dehydrogenase from Thiobacillus sp. KNK65MA, wild type (enzyme)
chain: MAKILCVLYDDPVDGYPKTYARDDLPKIDHYPGGQTLPTPKAIDFTPGQLLGSVSGELGLRKYLEANGHTFVVTSDKDGPDSVFEKELVDADVVISQPFWPAYLTPERIAKAKNLKLALTAGIGSDHVDLQSAIDRGITVAEVTYCNSISVAEHVVMMILGLVRNYIPSHDWARKGGWNIADCVEHSYDLEGMTVGSVAAGRIGLAVLRRLAPFDVKLHYTDRHRLPEAVEKELGLVWHDTREDMYPHCDVVTLNVPLHPETEHMINDETLKLFKRGAYIVNTARGKLADRDAIVRAIESGQLAGYAGDVWFPQPAPKDHPWRTMKWEGMTPHISGTSLSAQARYAAGTREILECFFEGRPIRDEYLIVQGGALAGTGAHSYSKGNATGGSEEAAKFKKAG
notes: NAD-dependent formate dehydrogenase of Thiobacillus sp; KNK65MA; fdh gene PCR amplified from pET-23b(+)-TsFDH and subcloned into pQE80; 45 kDa for a single subunit; also called FDH; FDH-WT; source: E. coli TOP10, purified (Ni-NTA agarose)
- stoichiometry N: 2
